Assay [1] has as its target T1, recombinant soluble human MICA*009 antigen (human, UniProt Q29983 24-307).
T1 construct: also called huIMICA-his allele *009
T1 chain: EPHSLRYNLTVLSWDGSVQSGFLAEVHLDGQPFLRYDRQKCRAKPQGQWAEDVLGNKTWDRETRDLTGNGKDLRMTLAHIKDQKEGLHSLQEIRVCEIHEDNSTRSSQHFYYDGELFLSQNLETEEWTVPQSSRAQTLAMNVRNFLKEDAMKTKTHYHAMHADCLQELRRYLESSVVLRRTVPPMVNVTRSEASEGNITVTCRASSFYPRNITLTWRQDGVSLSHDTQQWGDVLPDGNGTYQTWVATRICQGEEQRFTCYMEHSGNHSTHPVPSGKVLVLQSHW
The experiment in a line: SPR (Biacore 3000), antibody captured on Protein G chip, huMICA-his analyte; power of ten not given. The procedure: (§1) Kinetics and affinity of anti-MICA/B antibodies MICA.2, 19G6, 16A5, and 71C2 towards human MICA alleles (huIMICA-his allele *002, *004, *008, and *009) were also determined on a BIACORE 3000® instrument using the following conditions: [0571] Running Buffer: HES-EP running buffer [0572] Chip: CM5 Protein G Chip Fc1: Blank. Fc2-4: ˜200Rus [0573] Ab: 5 ug/mL, 10 uL @ 10 uL/min [0574] Ag binding: 5 min association, 7 min dissociation @ 25 uL/min, [0575] Regeneration: Glycine 1.7, 10 uL @ 100 uL/min followed by 60s wash by HES-EP

In assay [2] the target is T2, recombinant soluble human MICA*002 antigen (human, UniProt Q29983 24-307).
T2 construct: also called huIMICA-his allele *002
T2 chain: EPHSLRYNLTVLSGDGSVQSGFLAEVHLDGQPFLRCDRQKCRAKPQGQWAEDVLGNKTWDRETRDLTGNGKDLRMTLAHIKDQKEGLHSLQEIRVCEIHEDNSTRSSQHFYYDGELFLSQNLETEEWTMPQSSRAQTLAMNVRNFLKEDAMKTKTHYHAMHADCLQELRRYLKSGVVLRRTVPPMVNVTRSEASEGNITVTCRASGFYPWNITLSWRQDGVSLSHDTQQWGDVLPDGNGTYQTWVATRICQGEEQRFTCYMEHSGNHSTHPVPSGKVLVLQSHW
The description is as above. The method, then:
as §1

Assay [3] concerns the target T3, recombinant soluble human MICA*008 antigen (human, UniProt Q29983 24-307).
T3 construct: also called huIMICA-his allele *008; recombinant soluble MICA (allele 8)
T3 chain: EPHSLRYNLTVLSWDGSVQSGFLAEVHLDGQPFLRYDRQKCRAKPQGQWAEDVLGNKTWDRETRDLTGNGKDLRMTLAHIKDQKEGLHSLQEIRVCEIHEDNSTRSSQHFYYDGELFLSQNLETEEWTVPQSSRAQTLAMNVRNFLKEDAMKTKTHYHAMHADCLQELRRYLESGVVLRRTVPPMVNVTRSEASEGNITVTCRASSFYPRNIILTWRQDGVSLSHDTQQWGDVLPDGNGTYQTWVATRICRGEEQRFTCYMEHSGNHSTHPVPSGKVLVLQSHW
The assay is described as above. The procedure: as §1

In assay [4] the target is T4, recombinant soluble human MICA*004 antigen (human, UniProt Q29983 24-307).
T4 construct: also called huIMICA-his allele *004
T4 chain: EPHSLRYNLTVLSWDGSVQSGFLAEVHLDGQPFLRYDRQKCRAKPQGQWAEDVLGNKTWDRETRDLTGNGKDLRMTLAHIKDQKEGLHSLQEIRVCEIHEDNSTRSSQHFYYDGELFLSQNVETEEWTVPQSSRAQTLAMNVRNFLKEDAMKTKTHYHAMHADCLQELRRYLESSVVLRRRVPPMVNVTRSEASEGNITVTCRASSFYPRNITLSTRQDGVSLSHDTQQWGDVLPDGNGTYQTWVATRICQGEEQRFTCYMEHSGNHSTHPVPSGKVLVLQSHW
The assay is described as above. The procedure:
as §1

Assay [5] deals with T5, human MICA/B endogenously expressed on 786-O cells (MICA allele *008) (human, UniProt Q29983 24-331).
T5 construct: it speaks of MICA/B, so MICB may be present as well; also called 786-0
T5 chain: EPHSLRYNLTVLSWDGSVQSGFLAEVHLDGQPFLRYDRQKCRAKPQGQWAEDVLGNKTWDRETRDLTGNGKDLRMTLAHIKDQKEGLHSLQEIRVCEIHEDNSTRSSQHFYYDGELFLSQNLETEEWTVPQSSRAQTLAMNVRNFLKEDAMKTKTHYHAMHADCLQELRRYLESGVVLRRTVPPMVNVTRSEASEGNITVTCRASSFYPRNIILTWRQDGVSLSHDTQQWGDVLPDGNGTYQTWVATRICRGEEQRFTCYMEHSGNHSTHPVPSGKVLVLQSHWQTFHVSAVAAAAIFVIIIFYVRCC
The experiment in a line: flow cytometry, tumor cells with endogenous MICA/B. (In flow cytometry, cells or beads pass a laser one at a time.)

Assay [6] concerns the target T6, human MICA/B endogenously expressed on RPMI-8226 cells (human, UniProt Q29983 24-383).
T6 construct: whole, on cells
T6 sequence (looked up): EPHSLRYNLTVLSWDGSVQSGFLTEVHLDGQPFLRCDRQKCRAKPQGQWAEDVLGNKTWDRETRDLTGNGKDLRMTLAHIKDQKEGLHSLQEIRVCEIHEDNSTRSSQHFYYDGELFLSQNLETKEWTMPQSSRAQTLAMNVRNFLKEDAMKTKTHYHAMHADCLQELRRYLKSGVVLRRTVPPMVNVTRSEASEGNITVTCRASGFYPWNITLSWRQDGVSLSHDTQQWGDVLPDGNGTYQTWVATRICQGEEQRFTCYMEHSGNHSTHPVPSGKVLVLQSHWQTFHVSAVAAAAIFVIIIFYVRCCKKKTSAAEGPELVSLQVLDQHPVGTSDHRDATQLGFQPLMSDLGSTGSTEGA
The experiment in a line: flow cytometry, tumor cells with endogenous MICA/B.

Assay [7] concerns the target T3, recombinant soluble human MICA*008 …. The experiment in a line: BLI (Octet) sandwich binning on soluble MICA allele 8, row antibody captured; competitor (second antibody): MICA.36. The procedure: The binning experiments were performed on an Octet HTX instrument at 25° C. in HEPES buffered saline (10 mM HEPES pH 7.4, 150 mM NaCl, 0.05% v/v surfactant P20, and 1 mg/mL BSA). Anti-MICA/B antibodies and NKG2D-mFc were captured on anti-Fc tips and remaining capture sites were blocked with an excess of negative control IgG. Recombinant soluble MICA (allele 8) was bound and subsequent binding (“sandwiching”) of anti-MICA/B antibodies was tested.
A general note: BLI is a label-free optical method that tracks binding on a fibre tip over time.

The record followed here is patent US20220281980A1 (Bristol-Myers Squibb, published 2022).

B1: MICA.2 (antibody, human IgG1, kappa, V domains shown)
VH: EVQLVESGGGLVQPGGSLRLSCAASGFTFSTYSMNWVRQAPGKGLEWVSYISYRSRTIYYADSVKGRFTISRDNARNSLYLQMNSLRDEDTAVYYCARWGYGSGGFDYWGQGTLVTVSS
VL: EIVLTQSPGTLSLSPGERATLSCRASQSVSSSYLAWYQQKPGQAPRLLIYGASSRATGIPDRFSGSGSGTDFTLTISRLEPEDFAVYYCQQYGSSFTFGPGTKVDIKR
notes: 3F5 variable regions on human IgG1f and human kappa constant regions, made in CHO-S cells; also called 3F5; recombinant antibody of 3F5
Regarding B1, the koff – broadly, the first-order rate constant of dissociation – in assay [1] is 0.0232 s⁻¹; in assay [2], 0.0104 s⁻¹; in assay [3], 0.0246 s⁻¹; in assay [4], 0.0284 s⁻¹. Further, the EC50 (in general, the concentration needed to bring the measured effect to its halfway point) in assay [5] is 4.95 nM; in assay [6], 41.9 nM. Besides, the “simultaneous binding (0 = no, 1 = yes)” value in assay [7] was 1.

B2: 24G11 (antibody, V domains shown)
VH: EVQLVQSGAEVKKPGESLKISCKGSGYSFTNYWIGWVRQMPGKGLEWLGIIHPGDSYTRYSPSFQGQVTISADKSISTAYLQWSSLKASDTAIYYCAREGIAATPFDYWGQGTLVTVSS
VL: EIVLTQSPATLSLSPGERATLSCRASQSVSSYLAWFQQKPGQAPRLLIYDASNRATGIPARFSGSGSGTDFTLTISSLEPEDFAVYYCQQRSNWPPTFGQGTKVEIK
notes: also called MICA.54; 24G11 (MICA.54)
On to B2, for which the EC50 is 147 nM in assay [5] and 104 nM in assay [6]. Further, in assay [7], the “simultaneous binding (0 = no, 1 = yes)” value turned out to be 0.

B3: MICA.36 (antibody, V domains shown)
VH: QVQLVESGGGVVQPGRSLRLSCAASGFTFSNYAMHWVRQAPGEGLEWVALIWYDGSNKFYGDSVKGRFTISRDNSKNTLYLQMNSLSAEDTAVYYCAREGSGHYWGQGTLVTVSS
VL: AIQLTQSPSSLSASVGDRVTITCRASQGISSALAWYQQKPGKVPKSLIYDASSLESGVPSRFSGSGSGTDFTLTISSLQPEDFATYYCQQFNSYPITFGQGTRLEIK
notes: it says that the name implies no specific constant region; Radioiodinated in the Scatchard assay; also called MICA.36 antibody
In the case of B3, the “simultaneous binding (0 = no, 1 = yes)” value in assay [7] amounted to 0.

B4: 19G6 (antibody, V domains shown)
VH: QVQLVESGGGVVQPGRSLRLSCAASGFTFSNYAMHWVRQAPGEGLEWVALIWYDGSNKFYGDSVKGRFTISRDNSKNTLYLQMNSLSAEDTAVYYCAREGSGHYWGQGTLVTVSS
VL: AIQLTQSPSSLSASVGDRVTITCRASQGISSALAWYQQKPGKVPKSLIYDASSLESGVPSRFSGSGSGTDFTLTISSLQPEDFATYYCQQFNSYPITFGQGTRLEIK
notes: Hybridoma antibody from human IgG transgenic mice, parent of MICA.36; also called 19G6 mAb; hybridoma 19G6
B4: the koff in assay [1] came out at 2.15 s⁻¹; in assay [2] it was 8.14 s⁻¹; in assay [3], 1.87 s⁻¹; in assay [4], 2.28 s⁻¹. In addition, the results for the EC50 in assay [5] and in assay [6] were 1.37 nM and 3.89 nM, respectively.

B5: 71C2 (antibody, V domains shown)
VH: EVQLVESGGGLVQPGRSLRLSCAASGFTFNNYAMHWVRQAPGKGLEWVSGITWNSDSIGYADSVKGRFTISRDNAKNSLYLQMNSLRAEDTALYYCAKDSVLLWFGGMDVWGQGTTVTVSS
VL: not shown
notes: Hybridoma antibody
For B5, the koff in assay [1] came to 0.0325 s⁻¹; in assay [2] it was 0.0116 s⁻¹; in assay [3], 0.0109 s⁻¹; in assay [4], 0.0303 s⁻¹. Also, the EC50 in assay [5] is 13.8 nM; in assay [6], 36.9 nM.
